Experimental data published in patent publication US20260234121A1, “DERIVATIVES, IMMUNOGENS, AND ANTIBODIES AND USE OF THE SAME IN DETECTION OF ECSTASY-CLASS COMPOUNDS” (Siemens Healthcare Diagnostics Inc., priority 2023, published 2026).

Assays:
[1] = Competitive ELISA screening of hybridoma supernatants on E1-OVA (55), inhibitor MDA; assay type: binding; details: for E1-OVA (55) Binding, OD650 nm +MDA: hybridoma supernatant in the presence of 10 μg/mL MDA; for % Inhibition by 10 μg/mL of MDA: inhibition of mAb/E1-OVA (55) binding
Description: (§1) Competitive ELISA was used to assess the presence of anti-Ecstasy-class antibodies in animal sera, hybridoma supernatants, and monoclonal antibody (mAb) samples as well as to estimate the level of antibody cross reactivity to amphetamine (Amph) and methamphetamine (mAmph). Antisera and antibody samples were used at the dilution giving a response of about OD=1 at 650 nm (OD650 nm) in an indirect ELISA. Hybridoma supernatants were diluted 1:2 in PBS. (±)-MDMA, (±)-MDA, (±)-amphetamine, and (±)-methamphetamine were used as inhibitors (Cerilliant Corporation, Round Rock, TX). Microtiter ELISA plates were coated and blocked as described above for indirect ELISA. The inhibitors were serially diluted in PBS. 25 μL of the diluted inhibitor was mixed with 25 μL of fixed appropriate antiserum or antibody sample dilution. The mixture was incubated over the E1-OVA (55) solid phase for 1 h. The plates were washed as described above and the bound antibodies were detected with anti-rabbit or anti-mouse IgG HRP-conjugates and TMB substrate as described above.
(§2) The supernatants were screened in a competitive ELISA for the presence of anti-ecstasy compound monoclonal antibodies (mAbs) as follows. 25 μL of the hybridoma supernatant was mixed with equal volume of PBS alone or containing 20 μg/mL inhibitor (MDA or MDMA) were incubated for 1 h in the wells of E1-OVA (55) coated ELISA plates. The plates were washed and the presence of bound mAbs were detected using goat anti-mouse IgG (Fc)-HRP conjugate and TMB substrate as described above. The level of inhibition of mAb/E1-OVA (55) binding in the presence of the inhibitor was estimated using a Percent (%) Inhibition calculated by the below formula:
(§3) [formula] • where “OD650 nm w/o Inhibitor” is the binding response of the antibody sample diluted in PBS alone (with no inhibitor), and the “OD650 nm with Inhibitor” is the binding response of the same antibody sample in the presence of 10 μg/mL of inhibitor (i.e., MDA or MDMA).

[2] = Competitive ELISA screening of hybridoma supernatants on E1-OVA (55), inhibitor MDMA; assay type: binding; details: for E1-OVA (55) Binding, OD650 nm +MDMA: hybridoma supernatant in the presence of 10 μg/mL MDMA; for % Inhibition by 10 μg/mL of MDMA: inhibition of mAb/E1-OVA (55) binding
Description: as §1, §2, §3

[3] = Competitive ELISA of purified antibodies on E1-OVA (55), amphetamine and methamphetamine cross reactivity; assay type: binding
Description: as §1
(§4) The anti-ecstasy class mAbs were purified from clarified and filtered hybridoma culture supernatants on a recombinant Protein A Sepharose Fast Flow (GE Life Sciences, Boston USA), dialyzed against PBS containing 0.02% sodium azide and stored at 4° C. The purified mAbs were tested for MDA and MDMA reactivity as well as amphetamine (Amph) and methamphetamine (mAmph) cross reactivity in a competitive assay.

E1-OVA (55) = experiment: ELISA binding of hybridoma supernatant to E1-OVA (55) coated plates, without inhibitor; details: hybridoma supernatant mixed with PBS alone
Outline: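 Competitive ELISA at rt: hybridoma supernatant mixed 1:1 with PBS alone or PBS containing 20 μg/mL MDA or MDMA (stock), incubated 1 h on plates coated with 1 μg/mL E1-OVA (55). Bound mAb detected with anti-mouse IgG (Fc)-HRP/TMB at OD650; % inhibition derived from OD with vs without inhibitor.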

[4] = Competitive ELISA of purified antibodies on E1-OVA (55), MDMA and MDA reactivity; assay type: binding; details: 10,000-0.1 ng/mL range of drug concentration
Description: as §1, §4

[5] = Prototype EMIT ecstasy assay, cross-reactivity with methamphetamine; assay type: biochemical; details: conjugate Compound 58; negative urine pool
[6] = Prototype EMIT ecstasy assay, cross-reactivity with amphetamine; assay type: biochemical; details: conjugate Compound 58; negative urine pool

Molecule	E1-OVA (55) Binding, OD650 nm +MDA [1] [OD650 nm]	% Inhibition by 10 μg/mL of MDA [1] [%]	E1-OVA (55) Binding, OD650 nm +MDMA [2] [OD650 nm]	% Inhibition by 10 μg/mL of MDMA [2] [%]	cross reactivity in the presence of 1,000 ng/ml of Amph or mAmph [3]	E1-OVA (55) Binding, OD650 nm w/o inhib (E1-OVA (55)) [OD650 nm]	relative sensitivity to MDMA and MDA in competitive ELISA [4]	Concentrations (μg/mL) of Structurally Related Compounds Equivalent to 500 ng/mL MDMA Cutoffs, (+/−) mAmph [5] [µg/mL]	Concentrations (μg/mL) of Structurally Related Compounds Equivalent to 500 ng/mL MDMA Cutoffs, (+/−) Amph [6] [µg/mL]
178K 1B2 mAb: mouse monoclonal antibody raised against E1-KLH (56); IgG2b, κ; heavy chain SEQ ID NO 84, light chain SEQ ID NO 108 (antibody) heavy: MNFGLSLIFLALILKGVQCEVQLVESGGDLVKPGGSLKLSCAASGFTFTNYVMSWVRQTPDKRLEWVATINSGGRYAYYPDSVKGRFTISRDNAKNTLYLQMSSLKSEDTAMYYCAGGNNLDYWGQGTTLTVSSAKTTPPSVYPLAPGCGDTTGSSVTLGCLVKGYFPESVTVTWNSGSLSSSVHTFPALLQSGLYTMSSSVTVPSSTWLSQTVTCSVAHPASSTTVDKKLEPSGPISTIKPCPPCKECHKCPAPNLEGGPSVFIFPPNIKDVLMISLTPKVTCVVVDVSEDDPDVQISWFVNNVEVHTAQTQTHREDYNSTIRVVSALPIQHQDWMSGKEFKCKVNNKDLPSPIERTISKIKGLVRAPQVYILPPPAEQLSRKDVSLTCLVVGFNPGDISVEWTSNGHTEENYKDTAPILDSDGSYFIYSKLNMKTSKWEKTDSFSCNVRHEGLKNNYLKKTISRSPGK light: MRFSAQLLGLLVLWIPGSTADIVMTQAAFSNPVTLGTSASISCRSSKSLLQRNGITYLYWYLQKPGQSPQLLIYRLSNLASGVPDRFSSSGSGTDFTLRISRVEAEDVGVYYCGQDLELPYTFGGGTKLEIKRADAAPTVSIFPPSSEQLTSGGASVVCFLNNFYPKDINVKWKIDGSERQNGVLNSWTDQDSKDSTYSMSSTLTLTKDEYERHNSYTCEATHKTSTSPIVKSFNRNEC	0.730	82	0.667	83	do not show any significant cross reactivity	4.000	bind MDMA stronger than MDA		
178K 2B7 mAb: mouse monoclonal antibody raised against E1-KLH (56); IgG2b, κ; heavy chain SEQ ID NO 87, light chain SEQ ID NO 111 (antibody) heavy: MNFGLSLIFLALILKGVQCEVQLVESGGDLVRPGGSLKLSCASSGFIFSNYVMSWVRQTPDKRLEWVATINSGGRFTYYPDSVKGRFTISRDNAKNTLFLQMNSLKPEDTAIYYCAGGNNLDYWGQGTTLTVSSAKTTPPSVYPLAPGCGDTTGSSVTLGCLVKGYFPESVTVTWNSGSLSSSVHTFPALLQSGLYTMSSSVTVPSSTWLSQTVTCSVAHPASSTTVDKKLEPSGPISTIKPCPPCKECHKCPAPNLEGGPSVFIFPPNIKDVLMISLTPKVTCVVVDVSEDDPDVQISWFVNNVEVHTAQTQTHREDYNSTIRVVSALPIQHQDWMSGKEFKCKVNNKDLPSPIERTISKIKGLVRAPQVYILPPPAEQLSRKDVSLTCLVVGFNPGDISVEWTSNGHTEENYKDTAPILDSDGSYFIYSKLNMKTSKWEKTDSFSCNVRHEGLKNNYLKKTISRSPGK light: MRFSAQLLGLLVLWIPGSTADIVMTQAEFSNPVTLGTSASISCRSSKSLLQRSGITYLYWYLQKPGQSPQLLIYRMSNLASGVPDRFSSSGSGTDFTLRISRVEAEDVGVYYCGQDMELPYTFGGGTKLEIKRADAAPTVSIFPPSSEQLTSGGASVVCFLNNFYPKDINVKWKIDGSERQNGVLNSWTDQDSKDSTYSMSSTLTLTKDEYERHNSYTCEATHKTSTSPIVKSFNRNEC	0.429	88	0.374	89	do not show any significant cross reactivity	3.497	bind MDMA stronger than MDA	50 to 60	40 to 45
